Consider one molecule from paper PMC9898751 (The Journal of Biological Chemistry, 2022).

For this assay, the target named is T1, PHF2(1–70), PHD domain of human PHF2 (residues 1–70) (human, UniProt O75151 1-70).
T1 sequence: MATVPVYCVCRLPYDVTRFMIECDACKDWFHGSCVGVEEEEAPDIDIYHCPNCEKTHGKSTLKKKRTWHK
Description: ITC. In general terms: ITC needs no label: the signal is the heat of the interaction.

No end group written: not given here.

As a reminder, the Kd is the free concentration of one partner at which half of the binding sites on the other are occupied at equilibrium, for simple one-to-one binding.

For the molecule ARTK(me3)QTARKSTG [H3(1-12)K4me3 peptide (12-mer of the N-terminal tail of histone H3, trimethylated at lysine 4)], binding was characterised by a dissociation constant (Kd) of 640 nM.
